Experiment [1] has as its target Escherichia coli YidC, cysteine-less, with a cysteine introduced at position 405 (WT in the FRET assay) (Escherichia coli) (UniProt P25714). Briefly: FRET or BRET; labelled Pf3 coat added in steps (60, 60, 150, 150, 150, 300, 300 nM; final 1.17 uM; 1 min each) to DOPC proteoliposomes with 300 nM labelled YidC; excitation 500 nm, acceptor signal at 669 nm; room temperature.

In experiment [2] the target is Escherichia coli YidC R366E/F433S, cysteine-less, with a cysteine introduced at position 405 (Escherichia coli) (UniProt P25714). The experiment is described as above.

Drawing on publication PMC8920935, this text covers Kd for 1 substance.

As to “Pf3 coat protein, fluorescently labelled at residue 48 (from UniProt P03623 1-44) (natural protein)”, the Kd amounted to 241 nM in experiment [1] and 349 nM in experiment [2].
